Reference: patent US8709741B2, “Methods of diagnosing a plasmodium infection” (priority 2009, dated 2014)
Like-named read-outs stand apart in the source and are kept apart here.

How the values were obtained:
[1] = test system: P. falciparum FcB1/Colombian strain; assay: Anti-Plasmodium activity assay (dose-response, 3H-hypoxanthine incorporation), culture with human serum; type: cell-based
Description: (§1) The chloroquine-resistant P. falciparum FcB1/Colombian strain was used. Under the following culture conditions, the in vitro life cycle of the FcB1 strain was 48 hours. Cultures were grown in complete medium consisting of RPMI 1640 (Life Technologies, Inc.) supplemented with 11 mM glucose, 27.5 mM NaHCO3, 100 UI/mL penicillin, 100 μg/mL streptomycin, adjusted to pH 7.4 before addition of heat-inactivated human serum (A+ blood group, 8% final) or Albumax II® (0.5% final), according to the procedure of Trager and Jensen (1976). Parasites were routinely grown at 37° C. in human A+ RBCs (Red blood cells) at a 2% haematocrit and 2-6% parasitemia, in a 3% CO2, 6% O2 and 91% N2 atmosphere. Semi-synchronized cultures were established by Sorbitol (Lambros) treatment. Highly synchronized cultures (4 hour-window synchronization) were obtained by successive Plamion (Pasvol) and Sorbitol treatments. Parasitaemia and stage distribution were determined by optical examination of Diff-Quick stained culture smears. Parasitaemia (expressed in percent) is hundred times the number of parasitized erythrocytes divided by the total number of erythrocytes.
(§2) Dried preparations of the purified recombinant human sPLA2s were re-suspended at high concentration (usually 50 μM) in RPMI 0.05% BSA, and then tested individually for their capacity to inhibit the in vitro intra-erythrocytic development of P. falciparum. Dose-response assays based on ^3H-hypoxanthine incorporation by growing parasites were performed as in Guillaume et al. (2004). Radioactivity was measured with a 1450 Microbeta counter (Wallac, Perkin Elmer). Percentage of growth inhibition was calculated from the parasite-associated radioactivity compared with control without sPLA2. Values for the IC50 were determined from dose-response curves.

[2] = 48 h-hydrolysis of plasma by sPLA2s at IC50 concentrations (NEFA); type: biochemical, human; conditions: GX 3 nM, GIIF full length or truncated 15 nM, bee venom 15 pM; 37° C.
Description: Crude human plasma was incubated with 3 nM of recombinant human GX sPLA2 (⋄), 15 nM of the full length (▪) or truncated (□) recombinant human GIIF sPLA2, and 15 pM of the bee venom sPLA2 (♦), for 48 h at 37° C. Aliquots were taken at times 0 h, 6 h, 22 h, 30 h and 48 h of incubation. NEFAs in each aliquot were measured using the NEFA-C kit (WAKO);
Crude human plasma was incubated with 3 nM of recombinant human GX sPLA2, 15 nM of the full length or the truncated form (IIFΔC) of recombinant human GIIF sPLA2, and 15 pM of the bee venom sPLA2, for 48 h at 37° C. Aliquots (7 μL) were taken at times 0 h, 6 h, 22 h, 30 h and 48 h of incubation. NEFAs were measured in each aliquot by using the NEFA-C kit (WAKO). Experiment was repeated twice with different plasmas.

[3] = test system: P. falciparum blood stages; assay: Sensitivity of the P. falciparum blood stages to GX sPLA2 (15 h treatment, re-invasion); type: cell-based; conditions: 100 nM
Description: A parasite culture was synchronised on a 4 h window. Parasites aged 0-4 h post-invasion (p.i.) (rings, R), 18-22 h p.i. (trophozoites, T), and 34-38 h p.i. (schizonts, S) were incubated for 15 h in culture conditions with (▪) or without (□) 100 nM recombinant GX sPLA2. Afterwards cells were washed and let grow in normal culture conditions until re-invasion. GX sPLA2 inhibitory activity on the complete parasite cycle was assessed by incubating 0-4 h p.i. parasites for 48 h with GX sPLA2 (cycle). Parasitaemia in each sample was determined from Diff Quick-stained smears. For each stage, 100% parasitaemia was established from parasite growth in the absence of enzyme;
A parasite culture was synchronised on a 4 h-window. Parasites aged 0-4 h post-invasion (rings), 18-22 h post-invasion (trophozoites), and 34-38 h post-invasion (schizonts) were adjusted to 1% parasitaemia and 2% haematocrit in complete medium, and were then incubated in a 96-well plate in a candle jar at 37° C., with or without 100 nM of recombinant GX sPLA2. After 15 hours, cells were centrifuged at 900×g for 2 min, washed in RPMI and re-suspended at a 2% haematocrit in fresh complete medium for further growth. When re-invasion had occurred (P. falciparum invades new RBCs when its 48 hour-development cycle is completed), parasitaemia (%) in each well was determined from Diff Quick-stained smears. GX sPLA2 inhibitory activity on the complete parasite cycle was assessed by incubating rings with the recombinant enzyme for 48 hours.

P. falciparum = assay: Anti-Plasmodium activity assay in Albumax II (serum substitute); type: cell-based; conditions: Albumax II
Description: as §1, with “Highly synchronized cultures (4 hour-window synchronization) were obtained by successive Plamion (Pasvol) and Sorbitol treatments.” left out, “Parasitaemia (expressed in percent) is hundred times the number of parasitized erythrocytes divided by the total number of erythrocytes.” left out
as §2, with “Dose-response assays based on ^3H-hypoxanthine incorporation by growing parasites were performed as in Guillaume et al. (2004).” left out, “curves. […]” for “curves.”

[4] = Specific activities of sPLA2s on human plasma (NEFA release, NEFA-C kit); type: biochemical
Description: Kinetic analysis of human plasma hydrolysis by sPLA2s was performed by mixing on ice 50 μL of crude plasma with recombinant sPLA2s at various final concentrations (respectively 2×, 5× and 10× the IC50 value). At time zero, the mixture was transferred to 37° C. Samples (7 μL) were taken after 5, 15, 30 and 60 minutes of incubation and quickly frozen at −20° C. An aliquot of plasma without enzyme was similarly processed. Concentration of non-esterified fatty acids (NEFAs) in each sample was measured by a discontinuous enzymatic method using the NEFA-C test kit from WAKO, following manufacturer's instructions. The amount of NEFAs in each enzyme-containing plasma sample was subtracted for NEFAs in enzyme-free plasma sample. Specific activity for each of the sPLA2s was determined from the linear part of the curve [NEFA]=f(t). Experiment was repeated three times with plasmas from different donors and different batches of sPLA2s.
Specific activities of sPLA2s on human plasma. Hydrolysis of plasma phospholipids by human and venom sPLA2s was assayed using different incubation times and enzymes concentrations. Hydrolysis was assessed by measuring the amount of NEFAs in samples using the colorimetric assay developed by WAKO (NEFA-C kit). Enzymatic production of NEFAs was corrected for endogenous production of NEFAs measured in the absence of sPLA2. Specific activity for each of the sPLA2s was determined from the linear part of the kinetic curve. Values are the mean of three independent experiments. SD: standard deviation. Anti-P. falciparum activities (IC50) of the respective sPLA2s are given for comparison.

B1: X: recombinant human group X secreted phospholipase A2 (protein, UniProt O15496 43-165, looked up)
Group 10 secretory …: GILELAGTVGCVGPRTPIAYMKYGCFCGLGGHGQPRDAIDWCCHGHDCCYTRAEEAGCSPKTERYSWQCVNQSVLCGPAENKCQELLCKCDQEIANCLAQTEYNLKYLFYPQFLCEPDSPKCD
- IC50 ([1]; Table II, read-out: IC50 (nM), anti-P. falciparum activity given for comparison): 2.9 ± 2.4 nM
- IC50 ([1]; culture in human red blood cells and serum, mean of independent dose-response assays, read-out: IC50 ± SD (anti-P. falciparum activity)): 2.9 ± 2.4 nM
- inhibition of P. falciparum development in vitro ([1]; standard P. falciparum cultures with serum): active against P. falciparum
- hydrolysis of plasma over 48 h [2]: the most active
- re-invasion after treatment of rings ([3]; rings 0-4 h post-invasion): 25%
- schizonts that completed the cycle after treatment ([3]; schizonts 34-38 h post-invasion): less than 10%
- trophozoites that completed the cycle after treatment ([3]; trophozoites 18-22 h post-invasion): less than 10%
- inhibition of Plasmodium growth in Albumax II (P. falciparum): does not efficiently inhibit Plasmodium growth
- activity on plasma relative to GIIF sPLA2 ([4]; ratio of specific activities): 9 times
- activity on plasma relative to GV sPLA2 ([4]; ratio of specific activities): 30 times
- Specific activity ± SD (μmol NEFA/min × mg enzyme) ([4]; whole human plasma, 37° C., linear part of kinetic curve, mean of three experiments): 8.23 ± 0.92 μmol NEFA/min × mg enzyme
